From PMC9482650, “Quantitative fragmentomics allow affinity mapping of interactomes” (Nature Communications, 2022)

T1: PDZD2_5, O15018
T1 sequence (O15018 2617-2716, limits assumed, looked up): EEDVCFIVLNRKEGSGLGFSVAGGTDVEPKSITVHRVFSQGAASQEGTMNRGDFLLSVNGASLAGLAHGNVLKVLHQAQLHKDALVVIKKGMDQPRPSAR

T2: USH1C_2, Q9Y6N9
T2 sequence (Q9Y6N9 206-303, limits assumed, looked up): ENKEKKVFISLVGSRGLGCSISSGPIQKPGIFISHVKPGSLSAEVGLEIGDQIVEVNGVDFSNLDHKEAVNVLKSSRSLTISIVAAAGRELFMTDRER

T3: NHERF1_2, O14745
T3 sequence (O14745 149-244, limits assumed, looked up): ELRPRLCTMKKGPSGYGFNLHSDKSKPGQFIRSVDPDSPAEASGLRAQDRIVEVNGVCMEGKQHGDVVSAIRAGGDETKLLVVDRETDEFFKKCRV

T4: MPDZ_6, O75970
T4 sequence (O75970 1003-1099, limits assumed, looked up): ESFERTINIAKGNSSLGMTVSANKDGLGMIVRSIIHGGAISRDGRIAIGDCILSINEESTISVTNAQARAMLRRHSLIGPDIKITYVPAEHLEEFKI

T5: PARD6B, Q9BYG5
T5 sequence (Q9BYG5 152-260, limits assumed, looked up): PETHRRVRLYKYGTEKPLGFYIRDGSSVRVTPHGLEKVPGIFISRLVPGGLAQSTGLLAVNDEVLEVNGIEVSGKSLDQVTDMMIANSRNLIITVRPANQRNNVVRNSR

T6: MPDZ_7, O75970
T6 sequence (O75970 1146-1253, limits assumed, looked up): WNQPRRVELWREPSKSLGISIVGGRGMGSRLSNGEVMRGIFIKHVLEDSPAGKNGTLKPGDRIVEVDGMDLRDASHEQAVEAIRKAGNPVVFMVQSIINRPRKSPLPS

T7: INTU, Q9ULD6
T7 sequence (Q9ULD6 180-273, limits assumed, looked up): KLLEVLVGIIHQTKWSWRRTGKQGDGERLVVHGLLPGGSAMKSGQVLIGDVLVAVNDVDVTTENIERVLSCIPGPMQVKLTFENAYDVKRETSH

T8: SHROOM3, Q8TF72
T8 sequence (Q8TF72 20-120, limits assumed, looked up): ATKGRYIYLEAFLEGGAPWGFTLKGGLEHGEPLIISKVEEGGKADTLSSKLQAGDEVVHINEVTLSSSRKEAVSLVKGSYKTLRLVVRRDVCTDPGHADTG

T9: PTPN13_4, Q12923
T9 sequence (Q12923 1783-1878, limits assumed, looked up): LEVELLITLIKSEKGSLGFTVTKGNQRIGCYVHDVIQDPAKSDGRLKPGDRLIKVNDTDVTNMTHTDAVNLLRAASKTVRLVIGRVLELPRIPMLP

T10: USH1C_3, Q9Y6N9
T10 sequence (Q9Y6N9 447-547, limits assumed, looked up): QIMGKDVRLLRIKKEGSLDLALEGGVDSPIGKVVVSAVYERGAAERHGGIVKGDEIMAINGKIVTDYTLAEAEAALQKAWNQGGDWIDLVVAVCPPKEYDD

T11: SHANK2, Q9UPX8
T11 sequence (Q9UPX8 621-730, limits assumed, looked up): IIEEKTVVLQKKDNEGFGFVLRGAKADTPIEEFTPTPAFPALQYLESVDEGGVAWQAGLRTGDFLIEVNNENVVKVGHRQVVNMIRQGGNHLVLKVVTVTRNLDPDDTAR

T12: PTPN4, P29074
T12 sequence (P29074 512-599, limits assumed, looked up): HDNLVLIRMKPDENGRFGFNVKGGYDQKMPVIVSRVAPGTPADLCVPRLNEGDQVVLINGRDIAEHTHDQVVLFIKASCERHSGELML


These binders were tested against MAGI3_3, Q5TCQ9 (assay: holdup assay). Settings: plain residues with an end cap or a label only (N-terminal biotin on a linker: ttds).
Chain of MAGI3_3, Q5TCQ9 (Q5TCQ9 572-655): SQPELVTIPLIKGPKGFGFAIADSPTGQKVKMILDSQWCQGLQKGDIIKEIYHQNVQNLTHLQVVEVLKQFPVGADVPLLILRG
Design: key: below the threshold = too weak to quantify, mostly under pKd 3.1 to 4
For QRQARSETLV [HPV59-E6, Q81964], the pKd was “below the threshold”.
In the case of RPLPRKVSQL [DOCK4, Q8N1I0], the pKd is reported as “below the threshold”.

These binders were tested against T1, PDZD2_5, O15018 (assay: holdup assay). Settings: plain residues with an end cap or a label only (N-terminal biotin on a linker: ttds).
Design: key: below the threshold = too weak to quantify, mostly under pKd 3.1 to 4
In the case of QRQARSETLV [HPV59-E6, Q81964], the pKd is reported as “below the threshold”.
RPLPRKVSQL [DOCK4, Q8N1I0] was tested, and the pKd was “below the threshold”.

What follows are binders tested against PARD3B_2, Q8TEW8 (assay: holdup assay). Settings: plain residues with an end cap or a label only (N-terminal biotin on a linker: ttds).
Chain of PARD3B_2, Q8TEW8 (Q8TEW8 376-471): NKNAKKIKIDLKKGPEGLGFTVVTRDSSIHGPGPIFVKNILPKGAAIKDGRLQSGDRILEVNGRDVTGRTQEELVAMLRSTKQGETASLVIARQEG
Design: key: below the threshold = too weak to quantify, mostly under pKd 3.1 to 4
In the case of QRQARSETLV [HPV59-E6, Q81964], the pKd is reported as “below the threshold”.
In the case of RPLPRKVSQL [DOCK4, Q8N1I0], the pKd is reported as “below the threshold”.

What follows are binders tested against DLG2_1, Q15700 (assay: holdup assay). Settings: plain residues with an end cap or a label only (N-terminal biotin on a linker: ttds).
Design: key: below the threshold = too weak to quantify, mostly under pKd 3.1 to 4
Work on QRQARSETLV [HPV59-E6, Q81964] yielded a pKd of 4.52.
With RPLPRKVSQL [DOCK4, Q8N1I0] the pKd was “below the threshold”.

Each binder was assayed against CNKSR3, Q6P9H4 (assay: holdup assay). Settings: plain residues with an end cap or a label only (N-terminal biotin on a linker: ttds).
Chain of CNKSR3, Q6P9H4 (Q6P9H4 203-303): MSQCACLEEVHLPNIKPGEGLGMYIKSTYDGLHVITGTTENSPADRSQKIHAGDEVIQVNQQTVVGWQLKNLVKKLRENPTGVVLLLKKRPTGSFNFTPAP
Design: key: below the threshold = too weak to quantify, mostly under pKd 3.1 to 4
QRQARSETLV [HPV59-E6, Q81964] was tested, and the pKd was “below the threshold”.
With RPLPRKVSQL [DOCK4, Q8N1I0] the pKd was “below the threshold”.

The binders below were run against SCRIB_4, Q14160 (assay: holdup assay). Settings: plain residues with an end cap or a label only (N-terminal biotin on a linker: ttds).
Chain of SCRIB_4, Q14160 (Q14160 1095-1204): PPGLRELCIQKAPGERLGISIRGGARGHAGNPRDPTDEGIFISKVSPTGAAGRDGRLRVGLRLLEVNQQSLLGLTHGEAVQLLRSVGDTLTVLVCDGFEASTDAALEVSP
Design: key: below the threshold = too weak to quantify, mostly under pKd 3.1 to 4
In the case of QRQARSETLV [HPV59-E6, Q81964], the pKd is reported as “below the threshold”.
With RPLPRKVSQL [DOCK4, Q8N1I0] the pKd was “below the threshold”.

The binders below were run against T2, USH1C_2, Q9Y6N9 (assay: holdup assay). Settings: plain residues with an end cap or a label only (N-terminal biotin on a linker: ttds).
Design: key: below the threshold = too weak to quantify, mostly under pKd 3.1 to 4
With QRQARSETLV [HPV59-E6, Q81964] the pKd was “below the threshold”.
RPLPRKVSQL [DOCK4, Q8N1I0] was tested, and the pKd was “below the threshold”.

Each binder was assayed against T3, NHERF1_2, O14745 (assay: holdup assay). Settings: plain residues with an end cap or a label only (N-terminal biotin on a linker: ttds).
Design: key: below the threshold = too weak to quantify, mostly under pKd 3.1 to 4
QRQARSETLV [HPV59-E6, Q81964] was tested, and the pKd was “below the threshold”.
RPLPRKVSQL [DOCK4, Q8N1I0] gave a pKd of 4.45.

The binders below were run against RIMS2, Q9UQ26 (assay: holdup assay). Settings: plain residues with an end cap or a label only (N-terminal biotin on a linker: ttds).
Chain of RIMS2, Q9UQ26 (Q9UQ26 637-758): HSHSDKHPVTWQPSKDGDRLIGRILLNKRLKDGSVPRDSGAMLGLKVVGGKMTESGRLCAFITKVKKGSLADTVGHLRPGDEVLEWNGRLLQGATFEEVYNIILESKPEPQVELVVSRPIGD
Design: key: below the threshold = too weak to quantify, mostly under pKd 3.1 to 4
For QRQARSETLV [HPV59-E6, Q81964], the pKd was “below the threshold”.
RPLPRKVSQL [DOCK4, Q8N1I0] was tested, and the pKd was “below the threshold”.

These binders were tested against PDLIM4, P50479 (assay: holdup assay). Settings: plain residues with an end cap or a label only (N-terminal biotin on a linker: ttds).
Chain of PDLIM4, P50479 (P50479 1-83): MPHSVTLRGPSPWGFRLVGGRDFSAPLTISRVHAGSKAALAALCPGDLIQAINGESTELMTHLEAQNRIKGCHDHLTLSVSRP
Design: key: below the threshold = too weak to quantify, mostly under pKd 3.1 to 4
QRQARSETLV [HPV59-E6, Q81964] was tested, and the pKd was “below the threshold”.
For RPLPRKVSQL [DOCK4, Q8N1I0], the pKd was “below the threshold”.

The binders below were run against MAGI1_6, Q96QZ7 (assay: holdup assay). Settings: plain residues with an end cap or a label only (N-terminal biotin on a linker: ttds).
Chain of MAGI1_6, Q96QZ7 (Q96QZ7 1146-1238): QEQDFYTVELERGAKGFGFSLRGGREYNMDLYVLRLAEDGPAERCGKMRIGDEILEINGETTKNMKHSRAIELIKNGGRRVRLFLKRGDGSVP
Design: key: below the threshold = too weak to quantify, mostly under pKd 3.1 to 4
In the case of QRQARSETLV [HPV59-E6, Q81964], the pKd is reported as “below the threshold”.
RPLPRKVSQL [DOCK4, Q8N1I0] was tested, and the pKd was “below the threshold”.

Each binder was assayed against T4, MPDZ_6, O75970 (assay: holdup assay). Settings: plain residues with an end cap or a label only (N-terminal biotin on a linker: ttds).
Design: key: below the threshold = too weak to quantify, mostly under pKd 3.1 to 4
QRQARSETLV [HPV59-E6, Q81964] was tested, and the pKd was “below the threshold”.
RPLPRKVSQL [DOCK4, Q8N1I0] was tested, and the pKd was “below the threshold”.

Each binder was assayed against T5, PARD6B, Q9BYG5 (assay: holdup assay). Settings: plain residues with an end cap or a label only (N-terminal biotin on a linker: ttds).
Design: key: below the threshold = too weak to quantify, mostly under pKd 3.1 to 4
QRQARSETLV [HPV59-E6, Q81964] was tested, and the pKd was “below the threshold”.
RPLPRKVSQL [DOCK4, Q8N1I0] was tested, and the pKd was “below the threshold”.

The binders below were run against TJP1_1, Q07157 (assay: holdup assay). Settings: plain residues with an end cap or a label only (N-terminal biotin on a linker: ttds).
Chain of TJP1_1, Q07157 (Q07157 18-120): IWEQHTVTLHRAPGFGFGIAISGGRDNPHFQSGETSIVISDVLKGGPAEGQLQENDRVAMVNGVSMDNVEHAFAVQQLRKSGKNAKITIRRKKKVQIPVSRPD
Design: key: below the threshold = too weak to quantify, mostly under pKd 3.1 to 4
With QRQARSETLV [HPV59-E6, Q81964] the pKd was “below the threshold”.
In the case of RPLPRKVSQL [DOCK4, Q8N1I0], the pKd is reported as “below the threshold”.

The binders below were run against T6, MPDZ_7, O75970 (assay: holdup assay). Settings: plain residues with an end cap or a label only (N-terminal biotin on a linker: ttds).
Design: key: below the threshold = too weak to quantify, mostly under pKd 3.1 to 4
In the case of QRQARSETLV [HPV59-E6, Q81964], the pKd is reported as 4.28.
RPLPRKVSQL [DOCK4, Q8N1I0] was tested, and the pKd was “below the threshold”.

What follows are binders tested against T7, INTU, Q9ULD6 (assay: holdup assay). Settings: plain residues with an end cap or a label only (N-terminal biotin on a linker: ttds).
Design: key: below the threshold = too weak to quantify, mostly under pKd 3.1 to 4
QRQARSETLV [HPV59-E6, Q81964] was tested, and the pKd was “below the threshold”.

These binders were tested against T8, SHROOM3, Q8TF72 (assay: holdup assay). Settings: plain residues with an end cap or a label only (N-terminal biotin on a linker: ttds).
Design: key: below the threshold = too weak to quantify, mostly under pKd 3.1 to 4
For QRQARSETLV [HPV59-E6, Q81964], the pKd was “below the threshold”.
For RPLPRKVSQL [DOCK4, Q8N1I0], the pKd was “below the threshold”.

Each binder was assayed against T9, PTPN13_4, Q12923 (assay: holdup assay). Settings: plain residues with an end cap or a label only (N-terminal biotin on a linker: ttds).
Design: key: below the threshold = too weak to quantify, mostly under pKd 3.1 to 4
In the case of QRQARSETLV [HPV59-E6, Q81964], the pKd is reported as 4.42.
RPLPRKVSQL [DOCK4, Q8N1I0] was tested, and the pKd was “below the threshold”.

What follows are binders tested against T10, USH1C_3, Q9Y6N9 (assay: holdup assay). Settings: plain residues with an end cap or a label only (N-terminal biotin on a linker: ttds).
Design: key: below the threshold = too weak to quantify, mostly under pKd 3.1 to 4
For QRQARSETLV [HPV59-E6, Q81964], the pKd was “below the threshold”.
With RPLPRKVSQL [DOCK4, Q8N1I0] the pKd was “below the threshold”.

These binders were tested against IL16_2, Q14005 (assay: holdup assay). Settings: plain residues with an end cap or a label only (N-terminal biotin on a linker: ttds).
Chain of IL16_2, Q14005 (Q14005 350-450): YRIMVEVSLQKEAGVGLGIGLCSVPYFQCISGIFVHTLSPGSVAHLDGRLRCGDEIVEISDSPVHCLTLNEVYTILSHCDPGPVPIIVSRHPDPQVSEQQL
Design: key: below the threshold = too weak to quantify, mostly under pKd 3.1 to 4
For QRQARSETLV [HPV59-E6, Q81964], the pKd was “below the threshold”.
For RPLPRKVSQL [DOCK4, Q8N1I0], the pKd was “below the threshold”.

These binders were tested against MAGI1_3, Q96QZ7 (assay: holdup assay). Settings: plain residues with an end cap or a label only (N-terminal biotin on a linker: ttds).
Chain of MAGI1_3, Q96QZ7 (Q96QZ7 638-725): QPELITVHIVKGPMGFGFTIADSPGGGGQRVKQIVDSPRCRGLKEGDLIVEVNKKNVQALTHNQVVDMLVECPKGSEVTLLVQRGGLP
Design: key: below the threshold = too weak to quantify, mostly under pKd 3.1 to 4
Binder QRQARSETLV [HPV59-E6, Q81964] has a pKd of 5.25.
With RPLPRKVSQL [DOCK4, Q8N1I0] the pKd was “below the threshold”.

The binders below were run against NHERF2_1, Q15599 (assay: holdup assay). Settings: plain residues with an end cap or a label only (N-terminal biotin on a linker: ttds).
Chain of NHERF2_1, Q15599 (Q15599 9-91): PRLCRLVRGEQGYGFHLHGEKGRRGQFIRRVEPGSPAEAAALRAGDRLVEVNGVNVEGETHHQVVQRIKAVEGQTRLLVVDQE
Design: key: below the threshold = too weak to quantify, mostly under pKd 3.1 to 4
For QRQARSETLV [HPV59-E6, Q81964], the pKd was “below the threshold”.
RPLPRKVSQL [DOCK4, Q8N1I0] was tested, and the pKd was “below the threshold”.

Each binder was assayed against MAGI1_4, Q96QZ7 (assay: holdup assay). Settings: plain residues with an end cap or a label only (N-terminal biotin on a linker: ttds).
Chain of MAGI1_4, Q96QZ7 (Q96QZ7 other isoform, or with tags, fused parts or gaps): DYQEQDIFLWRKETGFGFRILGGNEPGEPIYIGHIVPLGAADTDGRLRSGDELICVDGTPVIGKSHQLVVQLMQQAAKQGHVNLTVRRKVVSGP
Design: key: below the threshold = too weak to quantify, mostly under pKd 3.1 to 4
With QRQARSETLV [HPV59-E6, Q81964] the pKd was 4.65.
For RPLPRKVSQL [DOCK4, Q8N1I0], the pKd was “below the threshold”.

These binders were tested against T11, SHANK2, Q9UPX8 (assay: holdup assay). Settings: plain residues with an end cap or a label only (N-terminal biotin on a linker: ttds).
Design: key: below the threshold = too weak to quantify, mostly under pKd 3.1 to 4
Binder QRQARSETLV [HPV59-E6, Q81964] has a pKd of 4.47.
For RPLPRKVSQL [DOCK4, Q8N1I0], the pKd was “below the threshold”.

The binders below were run against T12, PTPN4, P29074 (assay: holdup assay). Settings: plain residues with an end cap or a label only (N-terminal biotin on a linker: ttds).
Design: key: below the threshold = too weak to quantify, mostly under pKd 3.1 to 4
With QRQARSETLV [HPV59-E6, Q81964] the pKd was “below the threshold”.
For RPLPRKVSQL [DOCK4, Q8N1I0], the pKd was “below the threshold”.

What follows are binders tested against RIMS1, Q86UR5 (assay: holdup assay). Settings: plain residues with an end cap or a label only (N-terminal biotin on a linker: ttds).
Chain of RIMS1, Q86UR5 (Q86UR5 584-692): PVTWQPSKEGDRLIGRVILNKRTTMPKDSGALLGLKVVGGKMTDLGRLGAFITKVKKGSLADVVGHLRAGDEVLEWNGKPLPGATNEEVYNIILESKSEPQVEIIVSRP
Design: key: below the threshold = too weak to quantify, mostly under pKd 3.1 to 4
With QRQARSETLV [HPV59-E6, Q81964] the pKd was “below the threshold”.
In the case of RPLPRKVSQL [DOCK4, Q8N1I0], the pKd is reported as “below the threshold”.
